In publication PMC11672316, “Identification of ANXA1 as a Novel Upstream Negative Regulator of Notch1 Function in AML” (Advanced Science, 2024):
Bridge positions count the residues as written; N and C are the ends. Ends that are not written are not given here. Peptide text beside a SMILES is read from it.

Tests used:
[1] = biological target: T1, ANXA1 (Homo sapiens, UniProt P04083); test: BLI analysis, NICD peptides to immobilized ANXA1; format: binding; settings: for Koff: Octet Red96, ANXA1 immobilized on SSA sensor, peptides in SD buffer
T1 construct: made in house; host or cells: E. coli BL21
T1 sequence (P04083 1-346): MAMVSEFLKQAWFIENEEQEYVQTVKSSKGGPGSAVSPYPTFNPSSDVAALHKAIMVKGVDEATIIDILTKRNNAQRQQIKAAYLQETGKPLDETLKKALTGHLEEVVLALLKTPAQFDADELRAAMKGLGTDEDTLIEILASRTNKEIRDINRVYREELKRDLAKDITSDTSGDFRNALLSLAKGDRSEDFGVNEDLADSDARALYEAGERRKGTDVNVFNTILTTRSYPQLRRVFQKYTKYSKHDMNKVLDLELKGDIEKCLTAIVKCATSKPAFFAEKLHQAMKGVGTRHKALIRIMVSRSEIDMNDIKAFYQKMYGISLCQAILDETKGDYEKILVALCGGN
Procedure: (§1) AlphaFold2 and ClusPro servers were used to dock NICD and ANXA1.^[ [35] ^] The predictions were tested by GST‐pull down assay, bio‐layer interferometry (BLI) analysis, and chemical cross‐linking coupled with mass spectrometry. Details of these procedures are described in Materials and Methods (Supporting Information).
(§2) For bio‐layer interferometry (BLI) analyses performed by Octet Red96 system (Sartorius), purified NICD protein was immobilized on SA sensor (Sartorius) after labeling with Sulfo-NHS-Biotin (EZ-Link) and dialysis. To determine binding kinetics, five concentrations of purified ANXA1 protein were prepared with PBST (PBS containing 0.02% Tween-20) and measured from low to high concentrations by NICD-immobilized biosensors to obtain the association and dissociation sensorgram data. For detection of the interaction between protein and small molecular peptides, purified ANXA1 protein was immobilized on SSA sensor (Sartorius) to detect the binding kinetics of NICD peptides, which were diluted in SD buffer (PBST plus 0.1% w v^-1 BSA). The kinetic parameters Kon, Koff and KD were determined using Octct data analysis software.

[2] = tested on: KG1a cells
[3] = tested on: HL60 cells
[4] = biological target: intracellular domain of Notch1 (NICD), protein used in BLI and cross-linking; test: BLI; NICD with full-length ANXA1 or the C-terminal domain of ANXA1 at increasing concentrations; who was immobilised is not told in the main text (scheme in Figure 2D)
[5] = tested on: NICD; test: BLI analysis, ANXA1 proteins to immobilized NICD; format: binding, human; settings: for binding affinity with NICD: Figure 2E; for Koff / Kon / Kd: Octet Red96, biotinylated NICD immobilized on SA sensor; for Koff / Kon: ANXA1 protein in PBST; for Kd: five concentrations of ANXA1 protein in PBST (PBS containing 0.02% Tween-20)
Procedure: as §1, §2

[6] = biological target: T2, GST-tagged full-length ANXA1 (Annexin A1) (human, UniProt P04083 1-346); test: BLI; Octet Red96; purified ANXA1 protein immobilised on SSA sensor; NICD peptides diluted in SD buffer (PBST plus 0.1% w/v BSA); settings: both partners purified
T2 construct: Annexin A1 (ANXA1), human, full length; In the BLI with peptides it was immobilised on an SSA sensor; also called GST-ANXA1; source: E. coli BL21, purified (GST resin)
T2 sequence (looked up): T1 sequence (P04083 1-346)

[7] = tested on: Notch1; test: GST-pull down assay of Notch1 from KG1a cell lysate; format: binding, human; settings: western blotting, 4°C overnight; Figure S4C
Procedure: For GST-pull down assay, the purified GST fusion proteins were incubated with precleared GST resin (Solarbio) for 5 hours at 4°C. The precipitation was washed four times with PBS and captured the Notch1 protein from prepared cell lysates at 4°C overnight. The complexes were washed four times with PBS before being eluted in SDS-gel loading buffer and detected by western blotting.
Figure S4. GST pull down analysis of the interaction between ANXA1 and Notch1, related to Figure 2. (A) Schematic diagram of GST-tagged fusion protein structure of ANXA1 full-length, C-terminal, and N-terminal domain. (B) Coomassie blue-stained SDS gel image of GST-tagged fusion protein of full-length ANXA1, and N-terminal, and C-terminal domains of ANXA1. (C) Western blotting of Notch1 and ANXA1 expression in complexes pulled-down by GST-ANXA1 in sgANXA1#3 and sgControl cells of KG1a.

[8] = tested on: NICD (Δ2,050−2,060); test: BLI analysis of ANXA1 binding NICD (Δ2,050−2,060); design: species or system human; settings: Figure S6E
Procedure: as §2
Figure S6. ANXA1 (214−228) and NICD (2,050−2,060) mediate the protein-protein interaction, related to Figure 2J. (A) mRNA expression of ANXA1 detected by qPCR in KG1a-sgANXA1 and HL60-sgANXA1 cells. […] (C) The cell proliferation ability detected by CCK8 assay after 96 hours of culture of KG1a or HL60 cells stably transfected with sgANXA1 or sgControl plasmids. (D) The cell proliferation ability detected by CCK8 assay after 96 hours of culture of KG1a-sgANXA1 and HL60-sgANXA1 cells transiently transfected with ANXA1 (Δ214−228) plasmid. […]

CSCC[C@H](NC(=O)[C@H](CC(=O)O)NC(=O)[C@H](CCCCN)NC(=O)[C@H](CC(N)=O)NC(=O)[C@H](C)NC(=O)CNC(=O)[C@H](CC(N)=O)NC(=O)[C@H](CCCCN)NC(=O)[C@H](CC(C)C)NC(=O)[C@@H]1CSSC[C@H](NC(=O)[C@H](C)NC(=O)[C@H](CO)NC(=O)[C@@H](N)CCCCN)C(=O)N[C@@H](Cc2c[nH]cn2)C(=O)N[C@@H](Cc2c[nH]c3ccccc23)C(=O)N[C@@H](C)C(=O)N[C@@H](C)C(=O)N[C@@H](C)C(=O)N[C@@H](C(C)C)C(=O)N[C@@H](CC(N)=O)C(=O)N[C@@H](CC(N)=O)C(=O)N[C@@H](C(C)C)C(=O)N[C@@H](CC(=O)O)C(=O)N[C@@H](C)C(=O)N[C@@H](C)C(=O)N[C@@H](C(C)C)C(=O)N[C@@H](C(C)C)C(=O)N1)C(=O)N[C@@H](CCC(N)=O)C(=O)N[C@@H](CC(N)=O)C(=O)N[C@@H](CC(N)=O)C(=O)N[C@@H](CCCNC(=N)N)C(=O)O [NICD-5c] (H-KSACHWAAAVNNVDAAVVCLKNGANKDMQNNR-OH; disulfide 4-19)
Koff [1]: 1.08×10^-2 1 s^-1

KSALHWAAAVNNVDAAVVLLKNGANKDMQNNR [NICD-5l]
binding affinity with GST-ANXA1 ([1]; Figures 2I and S5B): increased the binding affinity with GST‐ANXA1 in a dose‐dependent manner
Koff [1]: 1.27×10^-2 1 s^-1
inhibition of cell proliferation ([2]; KG1a, CCK8, 72 h, Figure 2K, means ± s.e.m. of three independent experiments): significantly inhibited the proliferation of KG1a and HL60 cells in a dose‐dependent manner
inhibition of cell proliferation ([3]; HL60, CCK8, 72 h, Figure 2K, means ± s.e.m. of three independent experiments): significantly inhibited the proliferation of KG1a and HL60 cells in a dose‐dependent manner

RKKRRQRRR [TAT, reference compound]
cell damage [2]: barely caused cell damage
cell damage [3]: barely caused cell damage

B1: GST-tagged full-length Annexin A1 (ANXA1) (natural protein)
chain: T1 sequence (P04083 1-346)
Kd [4]: 18.4 µM

B2: GST-tagged C-terminal domain of ANXA1 (domain or fragment)
chain: PSSDVAALHKAIMVKGVDEATIIDILTKRNNAQRQQIKAAYLQETGKPLDETLKKALTGHLEEVVLALLKTPAQFDADELRAAMKGLGTDEDTLIEILASRTNKEIRDINRVYREELKRDLAKDITSDTSGDFRNALLSLAKGDRSEDFGVNEDLADSDARALYEAGERRKGTDVNVFNTILTTRSYPQLRRVFQKYTKYSKHDMNKVLDLELKGDIEKCLTAIVKCATSKPAFFAEKLHQAMKGVGTRHKALIRIMVSRSEIDMNDIKAFYQKMYGISLCQAILDETKGDYEKILVALCG
binding affinity with NICD [5]: dose‐dependently increased the binding affinity with NICD
Koff [5]: 1.68×10^-2 1 s^-1
Kon [5]: 3.15×10^3 1 Ms^-1
Kd [5]: 5.32 µM
Kd [4]: 5.32 µM

B3: NICD-5l peptide (peptide)
peptide: KSALHWAAAVNNVDAAVVLLKNGANKDMQNNR
notes: also called NICD-5 linear peptide; source: synthetic peptide (solid phase, Wang resin)
Kd [6]: 154 µM

B4: NICD-5c peptide (peptide)
peptide: KSACHWAAAVNNVDAAVVCLKNGANKDMQNNR-OH
modifications: bridge 4-19; also: cyclisation chemistry not given here
notes: also called NICD-5 cyclic peptide; source: synthetic peptide (solid phase, Wang resin)
Kd [6]: 223 µM

B5: Full-length ANXA1: purified full-length Annexin A1 protein (protein)
chain: T1 sequence (P04083 1-346)
modifications: left off: GST, end not stated, kept
notes: purified full-length Annexin A1 protein
binding affinity with NICD [5]: dose‐dependently increased the binding affinity with NICD
Koff [5]: 2.88×10^-2 1 s^-1
Kon [5]: 1.57×10^3 1 Ms^-1
Kd [5]: 18.4 µM

B6: GST-tagged ANXA1: GST-tagged fusion protein of full-length ANXA1 (protein)
chain: T1 sequence (P04083 1-346)
modifications: left off: GST, end not stated, kept
pull-down of Notch1 from cell lysate [7]: Notch1 in the cell lysate could be pulled down by GST‐tagged ANXA1

B7: ANXA1: Annexin A1, Ca2+-dependent phospholipid-binding protein (protein)
chain: T1 sequence (P04083 1-346)
modifications: left off: GST, end not stated, kept
interaction with NICD lacking 2050–2060 [8]: the interaction between NICD and ANXA1 was also lost due to the deletion of 2050–2060 amino acid domain of NICD
